Test results as given in patent US20110236679A1 (FUJIFILM, published 2011).

Tests used:
[1] = biological target: T1, MBP-VH(BGP) and MBP-VL(BGP), separate MBP-fused VH-region and VL-region polypeptides of the anti-osteocalcin …; test: SPR (BIACORE 3000), BGP heptapeptide over immobilized MBP-VH(BGP) and MBP-VL(BGP)
T1 construct: Two separate chains, not linked, on SENSORCHIP CM5; Substrate I was made from the 1:1:1 complex with the BGP heptapeptide, which was then washed off; In J the chains were immobilized one after the other without antigen; Both entries as printed start with the MBP leader; also called immobilization substrates I, J
Description: Commercially available SENSORCHIP CM5 (trade name, manufactured by GE Healthcare) was set in a Surface Plasmon Resonance Analyzer (trade name: BIACORE 3000, manufactured by Biacore). The substrate surface was stabilized with HEPES buffer solution for SPR (20 mM HEPES-HCl, 150 mM NaCl, pH 7.4) at a flow rate of 10 μl/min, and then 70 μl of a mixed aqueous solution of 0.2 mM EDC and 0.04 mM NHS was injected thereonto. Thereafter, 50 μl of a two-fold dilution of the above complex sample solution with an acetate buffer (pH 4.5) was injected onto the substrate sample, and then blocking treatment was performed with an ethanolamine solution.
Time-dependent change in binding over a period of 10 minutes from starting the addition of the BGP heptapeptide was measured using BIACORE 3000. The binding ratio of the BGP heptapeptide was obtained by dividing the binding amount of the BGP heptapeptide over the 10-minutes-period by the immobilization amount of the antibody fragments.

[2] = biological target: T2, lysozyme (hen (hen egg lysozyme, as named for the …, UniProt P00698 19-147)); test: SPR (BIACORE 3000), 100 nM lysozyme injected for 10 min; lysozyme bound divided by fragments immobilized; VH and VL fragments immobilized one after the other without antigen
T2 construct: also called hen egg lysozyme; HEL
T2 sequence (P00698 19-147 limits assumed): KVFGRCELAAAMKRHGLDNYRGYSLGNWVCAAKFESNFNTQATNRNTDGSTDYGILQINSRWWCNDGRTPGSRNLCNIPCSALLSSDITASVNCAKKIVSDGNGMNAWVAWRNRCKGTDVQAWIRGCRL
Description: (§1) Time-dependent change in lysozyme binding over a period of 10 minutes from starting the addition of lysozyme was measured using BIACORE 3000. The binding ratio of lysozyme was obtained by dividing the binding amount of lysozyme during the 10-minutes-period by the immobilization amount of the antibody fragments.
(§2) The binding amount of lysozyme was calculated and expressed as a relative value, assuming that the binding amount of lysozyme in Comparative Example 2 is 1.

[3] = biological target: T2, lysozyme; test: SPR (BIACORE 3000), 100 nM lysozyme injected for 10 min; lysozyme bound divided by fragments immobilized; fragments immobilized as 10:10:3 complex with lysozyme, antigen washed off
Description: as §1, §2

B1: C-terminal heptapeptide fragment of BGP (RRFYGPY) (peptide)
peptide: RRFYGPY
notes: also called BGP heptapeptide; osteocalcin C-terminal heptapeptide
binding result [1]: binds

B2: VH(HEL)-His6 and VL(HEL)-His10, separate VH-region and VL-region polypeptides of the anti-hen egg lysozyme antibody LxE16, immobilized together on a sensor chip (other)
VH: EVQLQESGPSLVKPSQTLSLTCSVTGDSITRGYWSWIRKFPGNKLEYMGYISYSGSTFYNPSLKSRISITRDTFKNQLYLQLNSVTTEDTATYYCAEYDGTYWGQGTTVTVHHHHHHGAAEQKLISEEDLNGAA
VL: VEFAAQPAMASTDILMTQTPATLSVTPGDSVSLSCRASQSIGNNLHWFQQKSHESPRLLIKYASQSISGIPSRFSGSGSGTDFTLSINTVETEDFGMYFCQQSNSWPYTFGGGTKLEIKRAAAEHHHHHHHHHH
notes: Two separate chains, not linked; Substrate G was made from the 10:10:3 complex with lysozyme, which was then washed off; In H the chains were immobilized one after the other without antigen; also called immobilization substrates G, H
Lysozyme binding ratio [2]: 1 relative value (text: Comparative Example 2 = 1; in the table Comparative Example 4 stands at 1)
Lysozyme binding ratio [3]: 7.6 relative value (text: Comparative Example 2 = 1; in the table Comparative Example 4 stands at 1)
